The results in this text go back to US7378388B2, “Method of utilizing neurotrophins to manipulate reproductive capacity” (University of Medicine and Dentistry of New Jersey, priority 2001, dated 2008).

One assay deals with cumulus cells. The assay can be described thus: BDNF production and secretion by cultured cumulus cells (BDNF ELISA of culture medium). Type of assay: cell-based, human. To be noted: 10 μM forskolin, cumulus cells cultured 24 h, P=0.016. For orientation: ELISA stands for enzyme-linked immunosorbent assay.
Assay [1] concerns mouse oocytes. The assay can be described thus: Effect of NT-4/5 and NT-3 on in vitro maturation of mouse oocytes. The format is cell-based. Here is the method: Eighteen 4-5 week old female C57BL/6 mice (Taconic Labs, German Town, N.Y.) were given a single intraperitoneal injection of 7.5 IU PMSG (Sigma, St. Louis, Mo.). Five hundred thirty-six (536) immature oocytes were harvested 48 hours after gonadotropin injection. Cumulus cells were removed mechanically (27 gauge insulin needles) at room temperature. Immature oocytes were equally divided into control (n=218) and experimental (n=318) groups and cultured in 5% CO2 in air, 37° C. in Human Tubal Fluid (HTF, Conception Technologies, San Diego, Calif.) for 24 and 48 hours with 1 ng/ml (n=59), 10 ng/ml (n=98) and 100 ng/mI (n=11) of 10 NT-4/5 (Peprotech, Inc. Rocky Hill, N.J.) or 10 ng/ml (n=60) and 100 ng/ml (n=60) of NT-3 (Peprotech, Inc. Rocky Hill, N.J.) to examine the percentage of germinal vesicle breakdown. The percentage of polar body extrusion was also examined. Control oocytes (n=218) were cultured in HTF under the same conditions without addition of NT-4/5 (n=158) or NT-3 (n=60).

Assay [2] has as its system mouse oocytes. The assay can be described thus: Effect of BDNF upon in vitro maturation of mouse oocytes. Type of assay: cell-based. To be noted: 100 ng/ml BDNF. Here is the method:
Six (6) 4-5 week old female C57BL/6 mice (Taconic Labs, German Town, N.Y.) were given a single intraperitoneal injection of 7.5 IV PMSG (Sigma, St. Louis, Mo.). One hundred sixty (160) immature oocytes were harvested 48 hours after gonadotropin injection. Cumulus cells were removed mechanically (27 gauge insulin needles) at room temperature. Oocytes were equally divided into control and experimental groups. Immature oocytes (n-80) were incubated (5% CO2 in air, 37° C.) in Human Tubal Fluid (HTF, Conception Technologies, San Diego, Calif.) with 100 ng/ml BDNF (Peprotech, Inc. Rocky Hill, N.J.) Control oocytes (n=80) were cultured in HTF under the same conditions without addition of BDNF. […] (See FIG. 3).

Where [3] appears, read: 24 and 48 hours in culture, compared to controls.

Text for cumulus cells: Cumulus cells, which are a mass of epithelial cells surrounding the ovum in the ovarian follicle, were removed from oocytes in preparation for IVF and were dissociated in hyaluronidase (100 IU/ml, Sigma Chemical Company, St. Louis, Mo.) then washed twice with HBSS. The resulting preparation of cumulus cells was of ninety-nine percent (99%) pure.
For the purpose of examining the regulation of BDNF expression by cAMP, cumulus cells were combined between two subjects for each experiment. […] The culture media was collected after 24 hours of culture for assay of BDNF.
BDNF levels were determined using commercially available BDNF E max® immumoassay system (Promega, Madison, Wis.). The ELISA's were performed according to the manufacture's protocol. Follicular fluid, granulosa cell culture media, oocyte or embryo culture media was added to a 96-well immunoplate pre-coated with human BDNF specific monoclonal antibody. The plate was incubated at room temperature for 2 hours with shaking. Anti-BDNF monoclonal antibody was used as the capture Ab and Anti-BDNF pAb was used as reporter Ab. After washing, the amount of specifically bound pAb was detected using a species-specific anti-IgY antibody conjugated to horseradish peroxidase (HRP) as a tertiary reactant. […] Absorbency was measured at 450 nm using a microplate reader (Model Vmax kinetic microplate reader; Molecular Devices). […]

Take `C=C[C@@]1(C)CC(=O)[C@]2(O)[C@@]3(C)[C@@H](O)CCC(C)(C)[C@@H]3[C@H](O)[C@H](OC(C)=O)[C@@]2(C)O1` [Forskolin]: in the assay on cumulus cells, the “increase of BDNF production” value was 11 fold.

B1: neurotrophin-4/5 (protein, UniProt P34130 81-210, looked up)
Neurotrophin-4: GVSETAPASRRGELAVCDAVSGWVTDRRTAVDLRGREVEVLGEVPAAGGSPLRQYFFETRCKADNAEEGGPGAGGGGCRGVDRRHWVSECKAKQSYVRALTADAQGRVGWRWIRIDTACVCTLLSRTGRA
notes: neurotrophin, Trk B ligand (Peprotech)
Take B1: the “mouse oocyte polar body extrusion” value with mouse oocytes [1] (1.0 ng/ml, 48 hours, p<0.05) was “significantly influenced”; with mouse oocytes [1] (10 ng/ml, 24 hours, <0.01) it was “significantly influenced”; in the assay on mouse oocytes [1] (10 ng/ml, 48 hours, p<0.01) it was “significantly influenced”; in the assay with mouse oocytes [1] (setting [3]) it was “significantly promoted”. The germinal vesicle breakdown result in the assay with mouse oocytes [1] (setting [3]) is “did not influence”.

B2: brain-derived neurotrophic factor (protein, UniProt P23560 19-247, looked up)
Neurotrophic factor BDNF …: APMKEANIRGQGGLAYPGVRTHGTLESVNGPKAGSRGLTSLADTFEHVIEELLDEDQKVRPNEENNKDADLYTSRVMLSSQVPLEPPLLFLLEEYKNYLDAANMSMRVRRHSDPARRGELSVCDSISEWVTAADKKTAVDMSGGTVTVLEKVPVSKGQLKQYFYETKCNPMGYTKEGCRGIDKRHWNSQCRTTQSYVRALTMDSKKRIGWRFIRIDTSCVCTLTIKRGR
notes: neurotrophin, soluble polypeptide growth factor, Trk B ligand (Peprotech)
As to B2, the “1st polar body extrusion” value was found to be 18.8% in the assay with mouse oocytes [2] (20 hours, control 6.3%, p=0.017); 20% in the assay on mouse oocytes [2] (24 hours, control 6.3%, p=0.01); 21.3% with mouse oocytes [2] (48 hours, control 7.5%, p=0.013).

B3: neurotrophin-3 (protein, UniProt P20783 139-257, looked up)
Neurotrophin-3: YAEHKSHRGEYSVCDSESLWVTDKSSAIDIRGHQVTVLGEIKTGNSPVKQYFYETRCKEARPVKNGCRGIDDKHWNSQCKTSQTYVRALTSENNKLVGWRWIRIDTSCVCALSRKIGRT
notes: neurotrophin, Trk C ligand (Peprotech)
Consider B3, for which, in the assay with mouse oocytes [1] (setting [3]), the germinal vesicle breakdown entry is recorded as “did not alter” and the “mouse oocyte polar body extrusion” value is listed as “did not alter”.
